± gives the uncertainty stated by the source.
Assay: self-splicing fitness, log relative to wild type (ln ratio); higher = more splicing; Tetrahymena group I intron in knt gene, E. coli kanamycin selection, DiMSum; sequences stand for … in CUCUCU…GGAGGGAAAAGUUAUCAGGCAUGCACCUGGUAGCUAGUCUUUAAACCAAUAGAUUGCAUCGGUUUAAAAGGCAAGACCGUCAAAUUGCGGGAAAGGGGUCAACAGCCGUUCAGUACCAAGUCUCAGGGGAAACUUUGAGAUGGCCUUGCAAAGGGUAUGGUAAUAAGCUGACGGACAUGGUCCUAACCACGCAGCCAAGUCCUAAGUCAACAGAUCUUCUGUUGAUAUGGAUGCAGUUCACAGACUAAAUGUCGGUCGGGGAAGAUGUAUUCUUCUCAUAAGAUAUAGUCGGACCUCUCCUUAAUGGGAGCUAGCGGAUGAAGUGAUGCAACACUGGAGCCGCUGGGAACUAAUUUGUAUGCGAAAGUAUAUUGAUUAGUUUUGGAGUACUCGUGGUCG
In short: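 Six replicate transformations of E. coli BL21(DE3) with a pET-22b(+) library were grown overnight at 37°C or 30°C. The library randomised all eight P1ex-region intron nucleotides, the intron lying in the knt kanamycin-resistance gene, and plates were LB agar with or without 25 μg/mL kanamycin plus 100 μg/mL carbenicillin, 50 μM IPTG and 0.2% rhamnose. Pooled colonies were amplicon-sequenced on an Illumina HiSeq 2500, and fitness is the DiMSum error-weighted combination of wild-type-normalised replicate fold changes, kanamycin versus none.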

| Sequence | self-splicing fitness (ln) (30 °C) | self-splicing fitness (ln) (37 °C) |
| --- | --- | --- |
| ACCCAGCAAUAUUACGUCCC | -1.18 ± 0.16 | -0.981 ± 0.17 |
| ACCCAGCAAUAUUACGUCUC | -1.89 ± 0.078 | -0.796 ± 0.094 |
| ACCCAGCAAUAUUACGUGGC | -2.83 ± 0.13 | -1.69 ± 0.11 |
| ACCCAGCAAUAUUACGUGUU | -1.45 ± 0.047 | -0.111 ± 0.061 |
| ACCGAGCAAUAUUACGAACA | -3.15 ± 0.47 | -1.43 ± 0.17 |
| ACCGAGCAAUAUUACGAACC | -2.9 ± 0.39 |  |
| ACCGAGCAAUAUUACGAAGU | -1.93 ± 0.16 | -1.68 ± 0.22 |
| ACCGAGCAAUAUUACGACGG | -2.24 ± 0.2 | -0.893 ± 0.21 |
| ACCGAGCAAUAUUACGACGU | -2.04 ± 0.1 | -0.637 ± 0.11 |
| ACCGAGCAAUAUUACGACUC | -1.44 ± 0.29 | -1.59 ± 0.22 |
| ACCGAGCAAUAUUACGACUU | -1.12 ± 0.087 | -0.353 ± 0.11 |
| ACCGAGCAAUAUUACGAGGA | -2.77 ± 0.21 | -2.99 ± 0.38 |
| ACCGAGCAAUAUUACGAGUC | -4.62 ± 0.3 | -3.25 ± 0.22 |
| ACCGAGCAAUAUUACGCAAU | -2.71 ± 0.16 | -2.36 ± 0.32 |
| ACCGAGCAAUAUUACGCAGA | -2.2 ± 0.19 | -2.51 ± 0.23 |
| ACCGAGCAAUAUUACGCCCG | -2.05 ± 0.29 | -1.28 ± 0.33 |
| ACCGAGCAAUAUUACGCGCC | -3.19 ± 0.25 | -3.32 ± 0.43 |
| ACCGAGCAAUAUUACGCGUU | -2.95 ± 0.16 | -1.58 ± 0.18 |
| ACCGAGCAAUAUUACGCUGG | -4.24 ± 0.26 | -2.13 ± 0.21 |
| ACCGAGCAAUAUUACGGAAG | -4.18 ± 0.34 | -1.93 ± 0.43 |
| ACCGAGCAAUAUUACGGCCA | -0.778 ± 0.13 | -0.469 ± 0.14 |
| ACCGAGCAAUAUUACGGCCC | -2.37 ± 0.21 | -1.89 ± 0.29 |
| ACCGAGCAAUAUUACGGCGC | -1.24 ± 0.14 | -0.396 ± 0.16 |
| ACCGAGCAAUAUUACGGCUA | -0.869 ± 0.096 | -0.288 ± 0.091 |
| ACCGAGCAAUAUUACGGCUG | -1.28 ± 0.073 | -1.24 ± 0.1 |

| Sequence | self-splicing fitness (ln) (30 °C) | self-splicing fitness (ln) (37 °C) |
| --- | --- | --- |
| ACCGAGCAAUAUUACGGGCG | -1.64 ± 0.083 | -0.0363 ± 0.088 |
| ACCGAGCAAUAUUACGGUCA | -1.22 ± 0.12 | -1.06 ± 0.14 |
| ACCGAGCAAUAUUACGGUUC | -3.5 ± 0.43 |  |
| ACCGAGCAAUAUUACGUCCA |  | -0.553 ± 0.21 |
| ACCGAGCAAUAUUACGUGAU | -3.36 ± 0.13 | -2.06 ± 0.12 |
| ACCUAGCAAUAUUACGAAUC | -2.94 ± 0.15 | -1.07 ± 0.13 |
| ACCUAGCAAUAUUACGACCA | -1.25 ± 0.16 | 0.323 ± 0.17 |
| ACCUAGCAAUAUUACGAGCU | -0.918 ± 0.075 | -0.237 ± 0.09 |
| ACCUAGCAAUAUUACGCUCU | -0.243 ± 0.096 | -0.447 ± 0.098 |
| ACCUAGCAAUAUUACGCUUC | -1.2 ± 0.1 | -1.1 ± 0.11 |
| ACCUAGCAAUAUUACGGACG | -0.864 ± 0.07 | -0.114 ± 0.1 |
| ACCUAGCAAUAUUACGGAGC | -2.67 ± 0.12 | -1.28 ± 0.14 |
| ACCUAGCAAUAUUACGGCAC | -0.933 ± 0.062 | -0.492 ± 0.07 |
| ACCUAGCAAUAUUACGGCAG | -3.99 ± 0.19 | -1.16 ± 0.14 |
| ACCUAGCAAUAUUACGGGCG | -0.0397 ± 0.068 | -0.0691 ± 0.084 |
| ACCUAGCAAUAUUACGGGUU | -2.78 ± 0.14 | -1.95 ± 0.14 |
| ACCUAGCAAUAUUACGGUUA | -2.38 ± 0.18 | -1.57 ± 0.14 |
| ACCUAGCAAUAUUACGUAGC | -1.81 ± 0.12 | -0.966 ± 0.14 |
| ACCUAGCAAUAUUACGUCCG | -2.21 ± 0.14 | -0.377 ± 0.19 |
| ACCUAGCAAUAUUACGUGAG | -0.357 ± 0.048 | -0.0328 ± 0.061 |
| ACCUAGCAAUAUUACGUGCU | -2.56 ± 0.092 | -1.31 ± 0.098 |
| ACCUAGCAAUAUUACGUUCA | -1.4 ± 0.099 | -1.05 ± 0.12 |
| ACCUAGCAAUAUUACGUUCC | -1.5 ± 0.086 | -0.914 ± 0.12 |
| ACGAAGCAAUAUUACGAAAU | -3.34 ± 0.2 | -1.5 ± 0.17 |
| ACGAAGCAAUAUUACGAACG | -1.3 ± 0.091 | -0.288 ± 0.11 |

| Sequence | self-splicing fitness (ln) (30 °C) | self-splicing fitness (ln) (37 °C) |
| --- | --- | --- |
| ACGAAGCAAUAUUACGAACU | -0.572 ± 0.084 | -0.697 ± 0.093 |
| ACGAAGCAAUAUUACGAGGG | -3.54 ± 0.17 | -3.26 ± 0.3 |
| ACGAAGCAAUAUUACGAUUG | -2.46 ± 0.14 | -0.909 ± 0.15 |
| ACGAAGCAAUAUUACGCACC | -0.755 ± 0.16 | -0.0218 ± 0.22 |
| ACGAAGCAAUAUUACGCAGU | -3.29 ± 0.17 | -2.5 ± 0.2 |
| ACGAAGCAAUAUUACGCCCU | -0.468 ± 0.1 | 0.19 ± 0.12 |
| ACGAAGCAAUAUUACGCCUA | -1.93 ± 0.15 | -1.1 ± 0.12 |
| ACGAAGCAAUAUUACGCGAA | -2.07 ± 0.1 | -0.608 ± 0.097 |
| ACGAAGCAAUAUUACGCUUA | -1.81 ± 0.087 | -0.374 ± 0.083 |
| ACGAAGCAAUAUUACGCUUG | -1.4 ± 0.086 | -0.259 ± 0.098 |
| ACGAAGCAAUAUUACGGACC | -0.399 ± 0.17 | -0.661 ± 0.26 |
| ACGAAGCAAUAUUACGGAGG | -2.97 ± 0.16 | -1.69 ± 0.14 |
| ACGAAGCAAUAUUACGGAUC | -3.59 ± 0.12 | -1.47 ± 0.096 |
| ACGAAGCAAUAUUACGGCCC | -1.25 ± 0.2 | 0.0496 ± 0.26 |
| ACGAAGCAAUAUUACGGGUA | -1.72 ± 0.25 | -2.08 ± 0.17 |
| ACGAAGCAAUAUUACGGGUC | -4.49 ± 0.29 | -2.34 ± 0.23 |
| ACGAAGCAAUAUUACGUGGU | -3.5 ± 0.16 | -2.95 ± 0.15 |
| ACGAAGCAAUAUUACGUUAU | -3.54 ± 0.13 | -1.1 ± 0.1 |
| ACGCAGCAAUAUUACGAAAU | -2.55 ± 0.13 | -1.7 ± 0.15 |
| ACGCAGCAAUAUUACGAACU | -0.619 ± 0.062 | -0.501 ± 0.081 |
| ACGCAGCAAUAUUACGAAUA |  | -2.19 ± 0.23 |
| ACGCAGCAAUAUUACGACGA | -0.25 ± 0.1 | 0.113 ± 0.12 |
| ACGCAGCAAUAUUACGACGC | 0.036 ± 0.062 | 0.169 ± 0.082 |
| ACGCAGCAAUAUUACGACGG | -0.871 ± 0.051 | -0.191 ± 0.073 |
| ACGCAGCAAUAUUACGACGU | -3.11 ± 0.1 | -0.828 ± 0.097 |

| Sequence | self-splicing fitness (ln) (30 °C) | self-splicing fitness (ln) (37 °C) |
| --- | --- | --- |
| ACGCAGCAAUAUUACGAGAG | -3.3 ± 0.11 | -1.78 ± 0.1 |
| ACGCAGCAAUAUUACGAGCG | -1.54 ± 0.083 | -0.23 ± 0.1 |
| ACGCAGCAAUAUUACGAGGA | -2.8 ± 0.16 | -2.26 ± 0.17 |
| ACGCAGCAAUAUUACGAUCC | -2.24 ± 0.15 | -1.09 ± 0.17 |
| ACGCAGCAAUAUUACGAUCG | -0.15 ± 0.049 | 0.252 ± 0.071 |
| ACGCAGCAAUAUUACGAUGC | -3.44 ± 0.27 | -1.56 ± 0.21 |
| ACGCAGCAAUAUUACGCAAU | -1.76 ± 0.11 | -1.85 ± 0.15 |
| ACGCAGCAAUAUUACGCCAG | -2.82 ± 0.22 | -2.07 ± 0.28 |
| ACGCAGCAAUAUUACGCCGU | -3.33 ± 0.2 | -2.74 ± 0.27 |
| ACGCAGCAAUAUUACGCUCC |  | -0.96 ± 0.18 |
| ACGCAGCAAUAUUACGGAAA | -2.7 ± 0.33 | -0.506 ± 0.21 |
| ACGCAGCAAUAUUACGGACC | -1.95 ± 0.15 | 0.559 ± 0.18 |
| ACGCAGCAAUAUUACGGAUC | -1.86 ± 0.093 | -0.813 ± 0.13 |
| ACGCAGCAAUAUUACGGCAA | -0.804 ± 0.078 | -0.421 ± 0.084 |
| ACGCAGCAAUAUUACGGCAC | -0.763 ± 0.077 | -0.602 ± 0.11 |
| ACGCAGCAAUAUUACGGCUC | -0.489 ± 0.055 | -0.0273 ± 0.082 |
| ACGCAGCAAUAUUACGGGCC | -1.28 ± 0.091 | -0.893 ± 0.12 |
| ACGCAGCAAUAUUACGUCCA | -1.28 ± 0.11 | -1.13 ± 0.1 |
| ACGGAGCAAUAUUACGAAAG | -3.06 ± 0.31 |  |
| ACGGAGCAAUAUUACGAGUA | -2.03 ± 0.41 | -1.94 ± 0.33 |
| ACGGAGCAAUAUUACGAUCA | -2.77 ± 0.37 | -1.53 ± 0.24 |
| ACGGAGCAAUAUUACGAUUA | -2.6 ± 0.25 | -2.23 ± 0.29 |

Source: the supplement of paper PMC7877785
